Measured values as given in PMC10375638.

Target: T1, …3 (SEP3) fused to mVenus, expressed in N. benthamiana (Arabidopsis thaliana), O22456
T1 chain: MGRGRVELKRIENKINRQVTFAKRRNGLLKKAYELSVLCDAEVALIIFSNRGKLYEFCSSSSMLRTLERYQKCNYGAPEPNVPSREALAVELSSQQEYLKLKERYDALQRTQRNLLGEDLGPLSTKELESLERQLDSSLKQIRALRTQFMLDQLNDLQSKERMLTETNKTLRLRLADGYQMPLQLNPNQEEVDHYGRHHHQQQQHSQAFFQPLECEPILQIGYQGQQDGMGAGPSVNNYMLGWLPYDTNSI
Assay: FRET or BRET; FLIM-FRET with one pattern analysis (OPA) in nuclei of transiently expressing N. benthamiana leaf epidermis cells; donor mVenus fusion, acceptor mCherry fusion; BINDING = relative amplitude of the FRET fraction; nucleoli excluded; FRET efficiency only for nuclei with BINDING above 10%
Settings: remark: other sources report otherwise

B1: …3 (SEP3) fused to mVenus, expressed in N. benthamiana, O22456 1-251 (natural protein)
chain: MGRGRVELKRIENKINRQVTFAKRRNGLLKKAYELSVLCDAEVALIIFSNRGKLYEFCSSSSMLRTLERYQKCNYGAPEPNVPSREALAVELSSQQEYLKLKERYDALQRTQRNLLGEDLGPLSTKELESLERQLDSSLKQIRALRTQFMLDQLNDLQSKERMLTETNKTLRLRLADGYQMPLQLNPNQEEVDHYGRHHHQQQQHSQAFFQPLECEPILQIGYQGQQDGMGAGPSVNNYMLGWLPYDTNSI
Question: How did the BINDING turn out when B1 was run?
Answer: 28.1%

Question: What about the FRET efficiency of the same binder?
Answer: 38.5%
